US20230416365A1 (Hoffmann-La Roche, published 2023)

B1: bispecific CEA (A5H1EL1D)-CD28 (SA Variant 15) 1+1 IgG of Example 10.3 (bispecific antibody)
heavy 1: EVQLLESGGGLVQPGGSLRLSCAASGFTFTDYYMNWVRQAPGKGLEWLGFIGNKANAYTTEYSASVKGRFTISRDKSKNTLYLQMNSLRAEDTATYYCTRDRGLRFYFDYWGQGTTVTVSSASTKGPSVFPLAPSSKSTSGGTAALGCLVKDYFPEPVTVSWNSGALTSGVHTFPAVLQSSGLYSLSSVVTVPSSSLGTQTYICNVNHKPSNTKVDKKVEPKSCDKTHTCPPCPAPEAAGGPSVFLFPPKPKDTLMISRTPEVTCVVVDVSHEDPEVKFNWYVDGVEVHNAKTKPREEQYNSTYRVVSVLTVLHQDWLNGKEYKCKVSNKALGAPIEKTISKAKGQPREPQVCTLPPSRDELTKNQVSLSCAVKGFYPSDIAVEWESNGQPENNYKTTPPVLDSDGSFFLVSKLTVDKSRWQQGNVFSCSVMHEALHNHYTQKSLSLSP
light 1: EIVLTQSPATLSLSPGERATLSCRASSSVTYIHWYQQKPGQAPRSWIYATSNLASGIPARFSGSGSGTDFTLTISSLEPEDFAVYYCQHWSSKPPTFGQGTKLEIKRTVAAPSVFIFPPSDEQLKSGTASVVCLLNNFYPREAKVQWKVDNALQSGNSQESVTEQDSKDSTYSLSSTLTLSKADYEKHKVYACEVTHQGLSSPVTKSFNRGEC
heavy 2: not shown
light 2: not shown
notes: knob-into-hole, crossmab, PG-LALA
B2: bispecific CEA (P005.102)-CD28 (SA Variant 15) 1+1 IgG (bispecific antibody)
heavy 1: EIVLTQSPATLSLSPGERATLSCRASSSVTYIHWYQQKPGQAPRSWIYATSNLASGIPARFSGSGSGTDFTLTISSLEPEDFAVYYCQHWSSKSPTFGQGTKLEIKSSASTKGPSVFPLAPSSKSTSGGTAALGCLVKDYFPEPVTVSWNSGALTSGVHTFPAVLQSSGLYSLSSVVTVPSSSLGTQTYICNVNHKPSNTKVDKKVEPKSCDKTHTCPPCPAPEAAGGPSVFLFPPKPKDTLMISRTPEVTCVVVDVSHEDPEVKFNWYVDGVEVHNAKTKPREEQYNSTYRVVSVLTVLHQDWLNGKEYKCKVSNKALGAPIEKTISKAKGQPREPQVCTLPPSRDELTKNQVSLSCAVKGFYPSDIAVEWESNGQPENNYKTTPPVLDSDGSFFLVSKLTVDKSRWQQGNVFSCSVMHEALHNHYTQKSLSLSP
light 1: EVQLLESGGGLVQPGGSLRLSCAASGFTFTDYYMNWVRQAPGKGLEWLGFIGNKANAYTTEYSASVKGRFTISRDKSKNTLYLQMNSLRAEDTATYYCTRDRGIRFQFDYWGQGTTVTVSSASVAAPSVFIFPPSDEQLKSGTASVVCLLNNFYPREAKVQWKVDNALQSGNSQESVTEQDSKDSTYSLSSTLTLSKADYEKHKVYACEVTHQGLSSPVTKSFNRGEC
heavy 2: not shown
light 2: not shown
notes: as for B1
B3: bispecific CEA (P005.102-combo1)-CD28 (SA Variant 15) 1+1 IgG (bispecific antibody)
heavy 1: EIVLTQSPATLSLSPGERATLSCRASSSVTYIHWYQQKPGQAPRSWIYATSNLASGIPARFSGSGSGTDFTLTISSLEPEDFAVYYCQHWSSKSPTFGQGTKLEIKSSASTKGPSVFPLAPSSKSTSGGTAALGCLVKDYFPEPVTVSWNSGALTSGVHTFPAVLQSSGLYSLSSVVTVPSSSLGTQTYICNVNHKPSNTKVDKKVEPKSCDKTHTCPPCPAPEAAGGPSVFLFPPKPKDTLMISRTPEVTCVVVDVSHEDPEVKFNWYVDGVEVHNAKTKPREEQYNSTYRVVSVLTVLHQDWLNGKEYKCKVSNKALGAPIEKTISKAKGQPREPQVCTLPPSRDELTKNQVSLSCAVKGFYPSDIAVEWESNGQPENNYKTTPPVLDSDGSFFLVSKLTVDKSRWQQGNVFSCSVMHEALHNHYTQKSLSLSP
light 1: EVQLLESGGGLVQPGGSLRLSCAASGFYFTDYYMNWVRQAPGKGLEWLGVISNKANAYTTEYSASVKGRFTISRDKSKNTLYLQMNSLRAEDTATYYCTRDRGIRFQFDYWGQGTTVTVSSASVAAPSVFIFPPSDEQLKSGTASVVCLLNNFYPREAKVQWKVDNALQSGNSQESVTEQDSKDSTYSLSSTLTLSKADYEKHKVYACEVTHQGLSSPVTKSFNRGEC
heavy 2: not shown
light 2: not shown
notes: as for B1
B4: bispecific CEA (P005.103)-CD28 (SA Variant 15) 1+1 IgG (bispecific antibody)
heavy 1: EIVLTQSPATLSLSPGERATLSCRASSSVTYIHWYQQKPGQAPRSWIYATSNLASGIPARFSGSGSGTDFTLTISSLEPEDFAVYYCQHWSSISPTFGQGTKLEIKSSASTKGPSVFPLAPSSKSTSGGTAALGCLVKDYFPEPVTVSWNSGALTSGVHTFPAVLQSSGLYSLSSVVTVPSSSLGTQTYICNVNHKPSNTKVDKKVEPKSCDKTHTCPPCPAPEAAGGPSVFLFPPKPKDTLMISRTPEVTCVVVDVSHEDPEVKFNWYVDGVEVHNAKTKPREEQYNSTYRVVSVLTVLHQDWLNGKEYKCKVSNKALGAPIEKTISKAKGQPREPQVCTLPPSRDELTKNQVSLSCAVKGFYPSDIAVEWESNGQPENNYKTTPPVLDSDGSFFLVSKLTVDKSRWQQGNVFSCSVMHEALHNHYTQKSLSLSP
light 1: EVQLLESGGGLVQPGGSLRLSCAASGFTFTDYYMNWVRQAPGKGLEWLGFIGNKANAYTTEYSASVKGRFTISRDKSKNTLYLQMNSLRAEDTATYYCTRDRGIRFYFDYWGQGTTVTVSSASVAAPSVFIFPPSDEQLKSGTASVVCLLNNFYPREAKVQWKVDNALQSGNSQESVTEQDSKDSTYSLSSTLTLSKADYEKHKVYACEVTHQGLSSPVTKSFNRGEC
heavy 2: not shown
light 2: not shown
notes: as for B1
B5: bispecific CEA (P005.102-combo2)-CD28 (SA Variant 15) 1+1 IgG (bispecific antibody)
heavy 1: EIVLTQSPATLSLSPGERATLSCRASSSVTYIHWYQQKPGQAPRSWIYATSNLASGIPARFSGSGSGTDFTLTISSLEPEDFAVYYCQHWSSKSPTFGQGTKLEIKSSASTKGPSVFPLAPSSKSTSGGTAALGCLVKDYFPEPVTVSWNSGALTSGVHTFPAVLQSSGLYSLSSVVTVPSSSLGTQTYICNVNHKPSNTKVDKKVEPKSCDKTHTCPPCPAPEAAGGPSVFLFPPKPKDTLMISRTPEVTCVVVDVSHEDPEVKFNWYVDGVEVHNAKTKPREEQYNSTYRVVSVLTVLHQDWLNGKEYKCKVSNKALGAPIEKTISKAKGQPREPQVCTLPPSRDELTKNQVSLSCAVKGFYPSDIAVEWESNGQPENNYKTTPPVLDSDGSFFLVSKLTVDKSRWQQGNVFSCSVMHEALHNHYTQKSLSLSP
light 1: EVQLLESGGGLVQPGGSLRLSCAASGFYFSDYYMNWVRQAPGKGLEWLGVISNKANAYTTEYSASVKGRFTISRDKSKNTLYLQMNSLRAEDTATYYCTRDRGIRFQFDYWGQGTTVTVSSASVAAPSVFIFPPSDEQLKSGTASVVCLLNNFYPREAKVQWKVDNALQSGNSQESVTEQDSKDSTYSLSSTLTLSKADYEKHKVYACEVTHQGLSSPVTKSFNRGEC
heavy 2: not shown
light 2: not shown
notes: as for B1
B6: bispecific CEA (P002.139)-CD28 (SA Variant 15) 1+1 IgG (bispecific antibody)
heavy 1: EIVLTQSPATLSLSPGERATLSCHASSSVTYIHWYQQKPGQAPRSWIYATSNLASGIPARFSGSGSGTDFTLTISSLEPEDFAVYYCQHWSSKPPTFGQGTKLEIKSSASTKGPSVFPLAPSSKSTSGGTAALGCLVKDYFPEPVTVSWNSGALTSGVHTFPAVLQSSGLYSLSSVVTVPSSSLGTQTYICNVNHKPSNTKVDKKVEPKSCDKTHTCPPCPAPEAAGGPSVFLFPPKPKDTLMISRTPEVTCVVVDVSHEDPEVKFNWYVDGVEVHNAKTKPREEQYNSTYRVVSVLTVLHQDWLNGKEYKCKVSNKALGAPIEKTISKAKGQPREPQVCTLPPSRDELTKNQVSLSCAVKGFYPSDIAVEWESNGQPENNYKTTPPVLDSDGSFFLVSKLTVDKSRWQQGNVFSCSVMHEALHNHYTQKSLSLSP
light 1: EVQLLESGGGLVQPGGSLRLSCAASGFYFTDYAMNWVRQAPGKGLEWLGVISNKANAYTTEYSASVKGRFTISRDKSKNTLYLQMNSLRAEDTATYYCTRDRGLRFYFDYWGQGTTVTVSSASVAAPSVFIFPPSDEQLKSGTASVVCLLNNFYPREAKVQWKVDNALQSGNSQESVTEQDSKDSTYSLSSTLTLSKADYEKHKVYACEVTHQGLSSPVTKSFNRGEC
heavy 2: not shown
light 2: not shown
notes: as for B1
B7: bispecific CEA (P005.097)-CD28 (SA Variant 15) 1+1 IgG (bispecific antibody)
heavy 1: EIVLTQSPATLSLSPGERATLSCRASSSVTYIHWYQQKPGQAPRSWIYATSNLASGIPARFSGSGSGTDFTLTISSLEPEDFAVYYCQHWSSQPPTFGQGTKLEIKSSASTKGPSVFPLAPSSKSTSGGTAALGCLVKDYFPEPVTVSWNSGALTSGVHTFPAVLQSSGLYSLSSVVTVPSSSLGTQTYICNVNHKPSNTKVDKKVEPKSCDKTHTCPPCPAPEAAGGPSVFLFPPKPKDTLMISRTPEVTCVVVDVSHEDPEVKFNWYVDGVEVHNAKTKPREEQYNSTYRVVSVLTVLHQDWLNGKEYKCKVSNKALGAPIEKTISKAKGQPREPQVCTLPPSRDELTKNQVSLSCAVKGFYPSDIAVEWESNGQPENNYKTTPPVLDSDGSFFLVSKLTVDKSRWQQGNVFSCSVMHEALHNHYTQKSLSLSP
light 1: EVQLLESGGGLVQPGGSLRLSCAASGFTFTDYYMNWVRQAPGKGLEWLGFIGNKANAYTTEYSASVKGRFTISRDKSKNTLYLQMNSLRAEDTATYYCTRDRGLRFSFDYWGQGTTVTVSSASVAAPSVFIFPPSDEQLKSGTASVVCLLNNFYPREAKVQWKVDNALQSGNSQESVTEQDSKDSTYSLSSTLTLSKADYEKHKVYACEVTHQGLSSPVTKSFNRGEC
heavy 2: not shown
light 2: not shown
notes: as for B1
B8: bispecific CEA (P001.177)-CD28 (SA Variant 15) 1+1 IgG (bispecific antibody)
heavy 1: EIVLTQSPATLSLSPGERATLSCRASSSVTYIHWYQQKPGQAPRSWIYATSNLASGIPARFSGSGSGTDFTLTISSLEPEDFAVYYCQHWSSKPPTFGQGTKLEIKSSASTKGPSVFPLAPSSKSTSGGTAALGCLVKDYFPEPVTVSWNSGALTSGVHTFPAVLQSSGLYSLSSVVTVPSSSLGTQTYICNVNHKPSNTKVDKKVEPKSCDKTHTCPPCPAPEAAGGPSVFLFPPKPKDTLMISRTPEVTCVVVDVSHEDPEVKFNWYVDGVEVHNAKTKPREEQYNSTYRVVSVLTVLHQDWLNGKEYKCKVSNKALGAPIEKTISKAKGQPREPQVCTLPPSRDELTKNQVSLSCAVKGFYPSDIAVEWESNGQPENNYKTTPPVLDSDGSFFLVSKLTVDKSRWQQGNVFSCSVMHEALHNHYTQKSLSLSP
light 1: EVQLLESGGGLVQPGGSLRLSCAASGFYFTDYYMNWVRQAPGKGLEWLGFISNKANAYTTEYSASVKGRFTISRDKSKNTLYLQMNSLRAEDTATYYCTRDRGLRFYFDYWGQGTTVTVSSASVAAPSVFIFPPSDEQLKSGTASVVCLLNNFYPREAKVQWKVDNALQSGNSQESVTEQDSKDSTYSLSSTLTLSKADYEKHKVYACEVTHQGLSSPVTKSFNRGEC
heavy 2: not shown
light 2: not shown
notes: as for B1

Biological target: T1, N(A2B2)A-avi-His (biotinylated at the avi tag)
T1 construct: also called biotinylated N(A2B2)A-avi-His
T1 chain: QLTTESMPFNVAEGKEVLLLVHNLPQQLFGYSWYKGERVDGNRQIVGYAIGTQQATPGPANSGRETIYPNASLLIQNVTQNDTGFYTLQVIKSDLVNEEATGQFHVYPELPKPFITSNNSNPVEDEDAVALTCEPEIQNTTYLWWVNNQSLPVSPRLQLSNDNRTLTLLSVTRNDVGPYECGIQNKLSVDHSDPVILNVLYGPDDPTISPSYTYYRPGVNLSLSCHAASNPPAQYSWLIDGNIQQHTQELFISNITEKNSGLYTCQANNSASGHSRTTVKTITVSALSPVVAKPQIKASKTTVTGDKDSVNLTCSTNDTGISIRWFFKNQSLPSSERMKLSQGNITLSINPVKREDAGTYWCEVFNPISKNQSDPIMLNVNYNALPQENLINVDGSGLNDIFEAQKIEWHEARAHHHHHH
Experiment: SPR, ProteOn, antigen on NLC chip, bispecific IgG as analyte
Experimental: About 2000, 1000, 500, and 250 RU of biotinylated N(A2B2)A-avi-His were immobilized on 4 channels of a Streptavidin-coated NLC chip in vertical orientation. As a control for non-specific binding, 2000 RU of biotinylated NA(B2)A-avi-His protein was immobilized on channel 5. For the determination of the affinity (KD) of the purified bispecific constructs, injection direction was changed to horizontal orientation. […] Buffer (PBST) was injected along the sixth channel to provide an “in-line” blank for referencing. Regeneration was performed with 10 mM glycine pH 1.5 for 20 s at 50 ul/min (vertical orientation).
Association rate constants (kon) and dissociation rate constants (koff) were calculated using a simple one-to-one Langmuir binding model in ProteOn Manager v3.1 software by simultaneously fitting the association and dissociation sensorgrams. The equilibrium dissociation constant (KD) was calculated as the ratio koff/kon.

Binder | Kd | koff | kon
B1 | 2.11 nM | 0.000333 s⁻¹ | 158000 M⁻¹ s⁻¹
B2 | 0.2 nM | 3.31e-05 s⁻¹ | 160000 M⁻¹ s⁻¹
B3 | 0.06 nM | 1.23e-05 s⁻¹ | 207000 M⁻¹ s⁻¹
B4 | 0.44 nM | 0.000112 s⁻¹ | 257000 M⁻¹ s⁻¹
B5 | 0.08 nM | 1.85e-05 s⁻¹ | 225000 M⁻¹ s⁻¹
B6 | 0.39 nM | 9.7e-05 s⁻¹ | 249000 M⁻¹ s⁻¹
B7 | 0.33 nM | 8.87e-05 s⁻¹ | 269000 M⁻¹ s⁻¹
B8 | 0.43 nM | 8.83e-05 s⁻¹ | 205000 M⁻¹ s⁻¹
